In IntAct's records for PubMed 31515488:

B1: Probable RNA-binding protein EIF1AD (Homo sapiens), Q8N9N8 (parent)
chain: MSQATKRKHVVKEVLGEHIVPSDQQQIVRVLRTPGNNLHEVETAQGQRFLVSMPSKYRKNIWIKRGDFLIVDPIEEGEKVKAEISFVLCKDHVRSLQKEGFWPEAFSEVAEKHNNRNRQTQPELPAEPQLSGEESSSEDDSDLFVNTNRRQYHESEEESEEEEAA
partner: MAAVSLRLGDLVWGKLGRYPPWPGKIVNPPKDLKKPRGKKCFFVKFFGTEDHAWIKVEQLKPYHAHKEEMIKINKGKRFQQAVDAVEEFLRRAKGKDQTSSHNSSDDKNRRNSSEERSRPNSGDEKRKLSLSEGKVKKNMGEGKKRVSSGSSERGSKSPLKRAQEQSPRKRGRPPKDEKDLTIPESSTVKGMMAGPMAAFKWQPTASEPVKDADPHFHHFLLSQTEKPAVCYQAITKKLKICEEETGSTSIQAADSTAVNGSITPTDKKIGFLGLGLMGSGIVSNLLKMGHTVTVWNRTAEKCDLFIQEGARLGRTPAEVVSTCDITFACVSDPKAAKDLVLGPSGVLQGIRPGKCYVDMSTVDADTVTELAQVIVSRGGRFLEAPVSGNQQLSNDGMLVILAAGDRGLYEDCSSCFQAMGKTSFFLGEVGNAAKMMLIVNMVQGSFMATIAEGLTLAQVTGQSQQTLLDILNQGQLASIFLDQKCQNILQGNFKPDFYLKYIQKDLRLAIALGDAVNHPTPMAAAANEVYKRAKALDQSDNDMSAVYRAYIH
B2: Pyridine nucleotide-disulfide oxidoreductase domain-containing protein 1 (Homo sapiens), Q8WU10 (parent)
chain: MEAARPPPTAGKFVVVGGGIAGVTCAEQLATHFPSEDILLVTASPVIKAVTNFKQISKILEEFDVEEQSSTMLGKRFPNIKVIESGVKQLKSEEHCIVTEDGNQHVYKKLCLCAGAKPKLICEGNPYVLGIRDTDSAQEFQKQLTKAKRIMIIGNGGIALELVYEIEGCEVIWAIKDKAIGNTFFDAGAAEFLTSKLIAEKSEAKIAHKRTRYTTEGRKKEARSKSKADNVGSALGPDWHEGLNLKGTKEFSHKIHLETMCEVKKIYLQDEFRILKKKSFTFPRDHKSVTADTEMWPVYVELTNEKIYGCDFIVSATGVTPNVEPFLHGNSFDLGEDGGLKVDDHMHTSLPDIYAAGDICTTSWQLSPVWQQMRLWTQARQMGWYAAKCMAAASSGDSIDMDFSFELFAHVTKFFNYKVVLLGKYNAQGLGSDHELMLRCTKGREYIKVVMQNGRMMGAVLIGETDLEETFENLILNQMNLSSYGEDLLDPNIDIEDYFD
partner: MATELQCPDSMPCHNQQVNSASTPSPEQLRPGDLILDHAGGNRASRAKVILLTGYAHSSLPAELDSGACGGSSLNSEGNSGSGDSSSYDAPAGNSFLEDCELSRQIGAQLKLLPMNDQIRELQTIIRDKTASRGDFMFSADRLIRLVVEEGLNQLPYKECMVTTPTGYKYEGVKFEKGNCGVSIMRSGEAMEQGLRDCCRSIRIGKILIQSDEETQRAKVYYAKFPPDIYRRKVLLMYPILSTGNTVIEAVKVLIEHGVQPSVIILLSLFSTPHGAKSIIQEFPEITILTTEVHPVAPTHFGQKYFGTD
B3: Thialysine N-epsilon-acetyltransferase (Homo sapiens), Q96F10 (parent)
chain: MASVRIREAKEGDCGDILRLIRELAEFEKLSDQVKISEEALRADGFGDNPFYHCLVAEILPAPGKLLGPCVVGYGIYYFIYSTWKGRTIYLEDIYVMPEYRGQGIGSKIIKKVAEVALDKGCSQFRLAVLDWNQRAMDLYKALGAQDLTEAEGWHFFCFQGEATRKLAGK
B4: LHFPL tetraspan subfamily member 5 protein (Homo sapiens), Q8TAF8 (parent)
chain: MVKLLPAQEAAKIYHTNYVRNSRAVGVMWGTLTICFSVLVMALFIQPYWIGDSVNTPQAGYFGLFSYCVGNVLSSELICKGGPLDFSSIPSRAFKTAMFFVALGMFLIIGSIICFSLFFICNTATVYKICAWMQLAAATGLMIGCLVYPDGWDSSEVRRMCGEQTGKYTLGHCTIRWAFMLAILSIGDALILSFLAFVLGYRQDKLLPDDYKADGTEEV
B5: Tuftelin-interacting protein 11 (Homo sapiens), Q9UBB9 (parent)
chain: MSLSHLYRDGEGRIDDDDDERENFEITDWDLQNEFNPNRQRHWQTKEEATYGVWAERDSDDERPSFGGKRARDYSAPVNFISAGLKKGAAEEAELEDSDDEEKPVKQDDFPKDFGPRKLKTGGNFKPSQKGFAGGTKSFMDFGSWERHTKGIGQKLLQKMGYVPGRGLGKNAQGIINPIEAKQRKGKGAVGAYGSERTTQSMQDFPVVDSEEEAEEEFQKELSQWRKDPSGSKKKPKYSYKTVEELKAKGRISKKLTAPQKELSQVKVIDMTGREQKVYYSYSQISHKHNVPDDGLPLQSQQLPQSGKEAKAPGFALPELEHNLQLLIDLTEQEIIQNDRQLQYERDMVVNLFHELEKMTEVLDHEERVISNLSKVLEMVEECERRMQPDCSNPLTLDECARIFETLQDKYYEEYRMSDRVDLAVAIVYPLMKEYFKEWDPLKDCTYGTEIISKWKSLLENDQLLSHGGQDLSADAFHRLIWEVWMPFVRNIVTQWQPRNCDPMVDFLDSWVHIIPVWILDNILDQLIFPKLQKEVENWNPLTDTVPIHSWIHPWLPLMQARLEPLYSPIRSKLSSALQKWHPSDSSAKLILQPWKDVFTPGSWEAFMVKNIVPKLGMCLGELVINPHQQHMDAFYWVIDWEGMISVSSLVGLLEKHFFPKWLQVLCSWLSNSPNYEEITKWYLGWKSMFSDQVLAHPSVKDKFNEALDIMNRAVSSNVGAYMQPGARENIAYLTHTERRKDFQYEAMQERREAENMAQRGIGVAASSVPMNFKDLIETKAEEHNIVFMPVIGKRHEGKQLYTFGRIVIYIDRGVVFVQGEKTWVPTSLQSLIDMAK
partner: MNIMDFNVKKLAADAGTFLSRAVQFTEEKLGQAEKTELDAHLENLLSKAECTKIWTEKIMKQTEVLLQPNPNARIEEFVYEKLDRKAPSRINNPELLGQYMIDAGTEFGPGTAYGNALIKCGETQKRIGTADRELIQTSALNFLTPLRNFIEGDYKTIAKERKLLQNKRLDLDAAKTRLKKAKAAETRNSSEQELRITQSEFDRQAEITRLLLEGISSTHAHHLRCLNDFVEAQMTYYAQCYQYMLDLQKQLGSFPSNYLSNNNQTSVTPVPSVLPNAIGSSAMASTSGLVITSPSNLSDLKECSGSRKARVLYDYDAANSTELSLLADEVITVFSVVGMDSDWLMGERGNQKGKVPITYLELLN
B6: Elongin-A2 (Homo sapiens), Q8IYF1 (parent)
chain: MAAGSTTLHAVEKLQVRLATKTEPKKLEKYLQKLSALPMTADILAETGIRKTVKRLRKHQHVGDFARDLAARWKKLVLVDRNTRPGPQDPEESASRQRFGEALQDQEKAWGFPENATAPRSPSHSPEHRRTARRTPPGQQRPHPRSHSREPRAERKCPRIAPADSGRYRASPTRTAPLRMPEGPEPAAPGKQPGRGHTHAAQGGPLLCPGCQGQPQGKAVVSHSKGHKSSRQEKRPLCAQGDWHSPTLIREKSCGACLREETPRMPSWASARDRQPSDFKTDKEGGQAGSGQRVPALEEAPDSHQKRPQHSHSNKKRPSLDGRDPGNGTHGLSPEEKEQLSNDRETQEGKPPTAHLDRTSVSSLSEVEEVDMAEEFEQPTLSCEKYLTYDQLRKQKKKTGKSATTALGDKQRKANESKGTRESWDSAKKLPPVQESQSERLQAAGADSAGPKTVPSHVFSELWDLSEAWMQANYDPLSDSDSMTSQAKPEALSSPKFREEAAFPGRRVNAKMPVYSGSRPACQLQVPTLRQQCAQVLRNNPDALSDVGEVPYWVLEPVLEGWRPDQLYRRKKDNHALVRETDELRRNHCFQDFKEEKPQENKTWREQYLRLPDAPEQRLRVMTTNIRSARGNNPNGREAKMICFKSVAKTPYDTSRRQEKSAGDADPENGEIKPASKPAGSSHTPSSQSSSGGGRDSSSSILRWLPEKRANPCLSSSNEHAAPAAKTRKQAAKKVAPLMAKAIRDYKRRFSRR
partner: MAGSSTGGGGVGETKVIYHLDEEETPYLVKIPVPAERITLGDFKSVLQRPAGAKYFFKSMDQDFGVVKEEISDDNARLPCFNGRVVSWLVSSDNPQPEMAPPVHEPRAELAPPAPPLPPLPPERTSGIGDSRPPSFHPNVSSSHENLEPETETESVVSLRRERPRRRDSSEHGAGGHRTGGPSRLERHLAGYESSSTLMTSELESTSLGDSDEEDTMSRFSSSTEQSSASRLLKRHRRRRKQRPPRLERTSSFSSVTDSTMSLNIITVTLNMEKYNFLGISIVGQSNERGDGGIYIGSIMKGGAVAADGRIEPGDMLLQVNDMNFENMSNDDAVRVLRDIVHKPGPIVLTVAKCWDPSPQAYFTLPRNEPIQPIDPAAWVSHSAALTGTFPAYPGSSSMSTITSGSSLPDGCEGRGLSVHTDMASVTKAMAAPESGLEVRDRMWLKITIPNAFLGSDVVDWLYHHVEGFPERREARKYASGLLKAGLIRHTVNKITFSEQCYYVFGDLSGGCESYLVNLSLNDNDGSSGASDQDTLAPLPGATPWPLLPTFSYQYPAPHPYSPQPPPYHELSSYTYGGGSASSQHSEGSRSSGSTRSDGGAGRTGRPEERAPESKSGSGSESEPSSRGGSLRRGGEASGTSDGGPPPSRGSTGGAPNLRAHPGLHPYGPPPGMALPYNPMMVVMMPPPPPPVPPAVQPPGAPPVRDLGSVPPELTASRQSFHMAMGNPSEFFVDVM
B7: PIH1 domain-containing protein 2 (Homo sapiens), Q8WWB5 (parent)
chain: METSSKGLLTQVTQFWNLLDDLAQSDPEGYEKFIQQQLKEGKQLCAAPEPQLCLQTRILKPKEKILFINLCQWTRIPAPQSTTHPVPLTVGKPEDTTEISDAYTVIDVAYNPDVLHAAEKDQVKKNQLIQMAMKCIEEKFQFTLSHSYHITKFRIKGSIQRMKQNLMGIQTDSIDLREKMRRELTLGQIRSSTMSNPDHFPQLLLPKDQVSGKAVCLIEEISSTEIQVEMKMPAYELKIVHDHSEKPLKIELKVELPGINSVSLCDLSVSEDDLLIEVSEKYRLHLNLPKLIDTEMTTAKFIKEKSTLIITMPLV

Variants of: B1
Conditions: with glyr1_human GLYR1, Q49A26

Row | effect of a mutation on the interaction | Variant
1 | with no effect | R48C

Variants of: B2
Conditions: with upp_human UPRT

Row | effect of a mutation on the interaction | Variant
2 | with no effect | R374K

Variants of: B3
Conditions: with sat1_human SAT1, P21673
sat1_human SAT1, P21673, sequence (P21673 whole entry): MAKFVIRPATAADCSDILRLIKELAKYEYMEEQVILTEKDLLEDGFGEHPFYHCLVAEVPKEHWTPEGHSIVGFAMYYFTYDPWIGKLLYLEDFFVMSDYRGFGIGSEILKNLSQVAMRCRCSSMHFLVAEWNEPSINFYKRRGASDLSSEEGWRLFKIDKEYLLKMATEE

Row | effect of a mutation on the interaction | Variant
3 | disrupting interaction strength | R126C

Variants of: B4
Conditions: with BCL2L13, Q9BXK5
BCL2L13, Q9BXK5, sequence (Q9BXK5 whole entry): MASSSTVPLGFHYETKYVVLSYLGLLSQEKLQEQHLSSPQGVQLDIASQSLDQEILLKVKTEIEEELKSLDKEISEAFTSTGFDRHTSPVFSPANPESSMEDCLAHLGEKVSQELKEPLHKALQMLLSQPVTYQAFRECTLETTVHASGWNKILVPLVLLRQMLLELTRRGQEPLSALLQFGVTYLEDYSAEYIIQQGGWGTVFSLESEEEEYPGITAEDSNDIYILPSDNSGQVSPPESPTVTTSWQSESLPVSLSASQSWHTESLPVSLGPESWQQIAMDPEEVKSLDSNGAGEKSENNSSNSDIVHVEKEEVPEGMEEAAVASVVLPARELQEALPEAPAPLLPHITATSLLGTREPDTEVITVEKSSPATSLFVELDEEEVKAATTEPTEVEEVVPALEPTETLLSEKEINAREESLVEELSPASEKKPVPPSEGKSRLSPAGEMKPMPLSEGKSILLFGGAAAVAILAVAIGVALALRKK

Row | effect of a mutation on the interaction | Variant
4 | with no effect | K205N

Variants of: B5
Conditions: with shlb1_human SH3GLB1, Q9Y371

Row | effect of a mutation on the interaction | Variant
5 | with no effect | R8Q
6 | with no effect | S688L

Variants of: B6
Conditions: with dvl2_human DVL2, O14641

Row | effect of a mutation on the interaction | Variant
7 | with no effect | A403S
8 | with no effect | R498Q
9 | with no effect | D302H
10 | with no effect | T6S
11 | with no effect | R179P
12 | with no effect | G505R
13 | with no effect | A446T
14 | with no effect | C254F

Variants of: B7
Conditions: with cenpr_human ITGB3BP

Row | effect of a mutation on the interaction | Variant
15 | with no effect | A117V
16 | with no effect | A102D

Variants of: B7
Conditions: with if2b3_human IGF2BP3, O00425
if2b3_human IGF2BP3, O00425, sequence (O00425 whole entry): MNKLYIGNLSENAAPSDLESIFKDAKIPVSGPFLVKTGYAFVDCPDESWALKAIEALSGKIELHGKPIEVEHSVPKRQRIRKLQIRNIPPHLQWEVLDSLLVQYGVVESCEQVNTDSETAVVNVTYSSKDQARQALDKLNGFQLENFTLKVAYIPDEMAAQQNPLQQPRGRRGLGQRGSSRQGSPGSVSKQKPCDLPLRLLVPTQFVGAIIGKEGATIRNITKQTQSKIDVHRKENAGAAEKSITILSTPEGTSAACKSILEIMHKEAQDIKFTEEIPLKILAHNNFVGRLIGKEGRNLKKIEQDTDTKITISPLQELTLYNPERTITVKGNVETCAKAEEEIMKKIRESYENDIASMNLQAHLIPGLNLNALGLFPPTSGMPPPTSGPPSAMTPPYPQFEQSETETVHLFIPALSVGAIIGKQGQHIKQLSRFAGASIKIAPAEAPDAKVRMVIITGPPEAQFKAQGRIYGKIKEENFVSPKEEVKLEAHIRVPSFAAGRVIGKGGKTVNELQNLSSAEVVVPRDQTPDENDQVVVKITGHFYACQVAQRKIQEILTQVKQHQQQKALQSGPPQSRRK

Row | effect of a mutation on the interaction | Variant
17 | with no effect | A117V
18 | with no effect | A102D

Variants of: B7
Conditions: with if4a2_human EIF4A2, Q14240
if4a2_human EIF4A2, Q14240, sequence (Q14240 whole entry): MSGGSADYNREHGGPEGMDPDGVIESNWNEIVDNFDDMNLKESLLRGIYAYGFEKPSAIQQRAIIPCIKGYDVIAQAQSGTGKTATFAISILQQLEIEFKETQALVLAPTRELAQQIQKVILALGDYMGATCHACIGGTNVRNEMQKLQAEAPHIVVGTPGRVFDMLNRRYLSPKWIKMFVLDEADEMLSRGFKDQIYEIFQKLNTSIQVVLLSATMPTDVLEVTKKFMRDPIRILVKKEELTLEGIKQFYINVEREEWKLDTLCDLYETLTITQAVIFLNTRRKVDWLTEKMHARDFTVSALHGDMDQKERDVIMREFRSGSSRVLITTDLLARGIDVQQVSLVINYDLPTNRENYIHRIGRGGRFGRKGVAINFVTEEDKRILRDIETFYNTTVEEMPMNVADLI

Row | effect of a mutation on the interaction | Variant
19 | with no effect | A117V
20 | with no effect | A102D

Variants of: B7
Conditions: with gfap_human GFAP

Row | effect of a mutation on the interaction | Variant
21 | disrupting interaction strength | A117V
22 | with no effect | A102D
